Columns and labels:
MS2 coat protein [1] = assay: apparent KD of MS2 coat protein, switch OFF state (with FMN for OFF switches, without FMN for ON switches); designed switch direction (-1 OFF switch, 1 ON switch): 1; higher = weaker reporter binding; conditions: FMN input: 0 or 200 uM; Eterna round: R93 (includes R88 designs)
Method in brief: (§1)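 Designed RNA switches were transcribed on-chip from Illumina sequencing clusters. They were then titrated with SNAP-549-labelled MS2 coat protein (twofold steps, 0.7 or 1.5 nM to 3 µM; 0.8–1.5 h to 10–20 min per step) in 100 mM Tris-HCl pH 7.5, 80 mM KCl, 4 mM MgCl2, without or with constant ligand. Apparent KD is the per-design median of normalised cluster binding-curve fits.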

MS2 coat protein [2] = assay: apparent KD of MS2 coat protein, switch ON state; designed switch direction (-1 OFF switch, 1 ON switch): 1; higher = weaker reporter binding; conditions: FMN input: 0 or 200 uM; Eterna round: R93 (includes R88 designs)
Method in brief: as §1

Sequence	apparent KD of MS2 coat protein (MS2 coat protein [1]) [nM]	apparent KD of MS2 coat protein (MS2 coat protein [2]) [nM]
GGAAGACAUGAGGAUCACCCAUGUGGGAAUAUGGGAGGAUAUACAAAGACGAGAGUCAGAGUAGAAGGCCUAGGAU [salish99-ss1-100]	138	44
AACAAUCUAUCUGAGGAUAUCAUGUCAAAGACAUGAGGAUCACCCAUGUCCAGGAAAACUGGUCAUGAGAAGGCAGAUAGAUUGA [SS2: 1111]	887	51.3
AAUAUAUUAAGUGAGGAUAUCGAGGAAAAAACAUGAGGAUCACCCAUGUGGGUAAAAAAAAAAAGUGAGAAGGUGCUUAAUAUAU [Samwise Clockwise 10 - Jieux - Same State 2]	128	32.3
GAAAAACAUGAGGAUCACCCAUGUGUAAAUAUGGAAGGAUAUACGAAGACGUAAGUCAAAGUAGAAGGUCUAAAAG [Garnet 99]	24.9	19.3
AAAUAAAGGACUGAGGAUAUACCACAUGAAACAUGAGGAUCACCCAUGUAGAAAUACAAAGGGUGGUAGAAGGCAGUCCACAAAC [Same State 2.5g ( so lets mod hyphema)]	25.5	15
AAGAAACAUGAGGAUCACCCAUGUAAGAUAAACACAGGAUAUGCGAAAGAAACAAAGAAAGCAGAAGGGUGAAGAA [Mat - Same State 1 - Tesla mod - 48]	26.8	9.76
AGAAUAAAAAGACAGGAUAUCCAAAAGAAAACAUGAGGAUCACCCAUGUAAAAAAAAAUAAAAUGGGAGAAGGGUCAAAAUAAAG [Mat - Same State 2 - JL mod - D69]	44	18
GAGCCGCGGGCACAGGAUAUGCUCGGGCAAACAUGAGGAUCACCCAUGUGCGGCCUAAAUACGACGCAGAAGGGUGCUUGUGUGU [Lausisan]	102	36.5
CGGUAAGAGAGAGAGGAUAUCCAAAGGAAAACAUGAGGAUCACCCAUGUAGAAGGUAGGAAAUUGGGAGAAGGCUCAAGAGAGAG [salish99-ss2-133]	61.7	58.4
AAAUAAAUGACUGAGGAUAUAUCGAUGAAAACAUGAGGAUCACCCAUGUGAUAAUAAAAAGGGUGGUAGAAGGUAGUCAACAAAC [Mod 12 of Pariah 4 by Hyphema in Round 1]	207	55.5
AGGAAACAUGAGGAUCACCCAUGUAAAUAUGGGCGAGGAUAUCGAAAGAAAAGAAAGAAACGAGAAGGCGCAAAAG [GU on the end]	295	49.2
GAAAAACAUGAGGAUCACCCAUGUACAAAUAUGGAAGGAUAUACGAUGACGAAAGUCAAAGUAGAAGGUCUAAAAG [Garnet 98]	25.4	20.9
CGGAGACAUGAGGAUCACCCAUGUGAGAAGAGGCGAGGAUAUCGAAAGAAAGAAGAGAAACGAGAAGGCGCGAGUC [salish99-SS1-078]	25	20.4
CGAAGACAUGAGGAUCACCCAUGUGGGAUUAUGGGAGGAUAUACAAAGACGAGAGUCAGAGUAGAAGGCCUAGGAC [salish99-ss1-127(!)]	33.4	26
AGGAAACAUGAGGAUCACCCAUGUAAAAUAAUGGGAGGAUAUGCGAAAAGAAAAAGAAAAGCAGAAGGCCUAAGAA [62%, Something completely different, 4]	98.6	18.6
CGGAAGGAGAGAGAGGAUAUCCAAAGGAAAACAUGAGGAUCACCCAUGUAGAAGGUAGGAAAUUGGGAGAAGGCUCAAGAGAGUG [salish99-ss2-121]	44.6	30.2
CGCAAACAUGAGGAUCACCCAUGUCAUUGUGAUCAAGGAUAUGGGUUCCGAAGUGGAACACCAGAAGGUGAGUAGU [Sozaer]	497	224
AAACAAACAACGCAGGAUAUGCAAAAACCCACAUGAGGAUCACCCAUGUCCCAACAACAAACAAAGCAGAAGGGCGAACAAACAAA [High Roller1]	86.8	37.3
AAACAGAUAGGACAGGAUAUGUCGUGAUAAACAUGAGGAUCACCCAUGUGAGACAUCACGUAAUCGCAGAAGGGUCCUGUCUUAC [Aquditiri]	15.6	16.3
UGAAGACAUGAGGAUCACCCAUGUGGGAAUAUGGGAGGAUAUACAAAGACGAGAGUCAGAGUAGAAGGCCUAGGAC [salish99-ss1-98]	133	47.9
AAAUAAAUGACUAAGGAUAUAUCAAAGAAAACAUGAGGAUCACCCAUGUAAUAAUAAAAAGGGUGAUAGAAGGUAGUCAACAAAC [74%, More Paria 4]	221	23.7
AAAAAACAUGAGGAUCACCCAUGUCGAAAGACGUGAGGAUAUGUACAGACUUCGGUCUGUACAGAAGGCAUGAAAA [SS1 - 1057]	176	79.5

Sequence	apparent KD of MS2 coat protein (MS2 coat protein [1]) [nM]	apparent KD of MS2 coat protein (MS2 coat protein [2]) [nM]
UUUCAUUACACGAAGGAUAUCGCUUUUCAGACAUGAGGAUCACCCAUGUAGUAGAUUUCCCUGUUCGAGAAGGUCGCGGGUGAAC [JR_SS002_Sub603]	70.4	51.5
AAACCACAUGAGGAUCACCCAUGUGAAAAAAACAUAGGAUAUGGAAACACGAAAGUGAAACCAGAAGGGUGAAAAA [77%, Mat - Mod of Eli, 27]	23.8	24.3
AGAUCUAGAAGGUAGGAUAUGUGUAAAAAUACAUGAGGAUCACCCAUGUGAUGAAUAAAAAGAAAAUAGAAGGACCAUCUAGAUC [Cross swing 3]	119	16.8
AAGAAACAUGAGGAUCACCCAUGUAAGAUAAACACAGGAUAUGCGAAAUAAAUAAAUAAAGCAGAAGGGUGAAGAA [Mat - Same State 1 - Tesla mod - D149]	19.4	6.88
GUGGUGUAGGUACAGGAUAUGUUGCUCGUAACAUGAGGAUCACCCAUGUACCUAUGAGAUUAAAUGCAGAAGGGUGCACACCACG [Alage]	118	37.3
GAAAAACAUGAGGAUCACCCAUGUAGAAAUAUGGGAGGAUAUACAAAGACGAAAGUCAAAGUAGAAGGCCUGAAGA [Mat - Same State 1 - JL mod - D91]	73.1	27.1
GGCAGGAAGAGAGAGGAUAUCCAAAGGAAAACAUGAGGAUCACCCAUGUAAAAGGUAGGAAAUUGGGAGAAGGCUCAAGAGAGAG [salish99-ss2-099]	35.4	30.9
CGCGAACAUGAGGAUCACCCAUGUAGCGGGAAACAAGGAUAUGGGAGGCGAAAUCGCGGAUCAGAAGGUGUAAGCG [Laaratat]	12.4	14.7
ACUAUACAUGAGGAUCACCCAUGUCAGGUGGGACUAGGAUAUCAUAAGCCAGAGUAAGAAUGAGAAGGAGUAGAAA [JR_SS001_Sub306]	151	143
AAUACACAUAGUCAGGAUAUCAAAAAUAAGACAUGAGGAUCACCCAUGUAAUAAGUAAAAGUAAAUGAGAAGGGACAGGGUGAAA [JR_SS002_Sub402]	79.3	33
GACCGGGACGCGUAGGAUAUGUAGUGCGCUACAUGAGGAUCACCCAUGUGCGAGACUUCAAAAGAGCAGAAGGGUGUGUGCCCGG [Xegeedri]	65.8	40.2
AAUGAACAUGAGGAUCACCCAUGUUCUAAUAGUUGAGGAUAUAUGGGUGAAAAUAGCACGGUAGAAGGCGAGUGUA [SameState1 Malc#18]	104	249
AGAAAUAAAAGGCAGGAUAUCCAAAAGAAAACAUGAGGAUCACCCAUGUAAAAGAAAAUAAAAUGGGAGAAGGGCCAAAAUAAAG [Fisker 73]	42.3	13.1
AGUAAACAUGAGGAUCACCCAUGUGGUGGCCCAUGAGGAUAUCCAUGCGCAAUGCGCAUAGGAGAAGGCAUAGCCA [Enenerla]	52.6	125
AACAAUCUAUCUGAGGAUAUGUGUCGAAAGACAUGAGGAUCACCCAUGUAAAAACAUGAAAAAACACAGAAGGCAGAUAGAUUGA [SS2: 1146]	81.5	62.6
CGCCAAUUGGCACAGGAUAUGAGCAUGCUCACAUGAGGAUCACCCAUGUGAUUAACAACGCAAUAUCAGAAGGGUGCCCUCAUCA [Leonon]	33.1	50.3
AUAACACAUGAGGAUCACCCAUGUAGAUACAAGUCAGGAUAUGCAACCUCAUGAAAAAAAGCAGAAGGGACAAUAA [SS 1 Tesla 3]	85.4	27.5
AAAAAACAUGAGGAUCACCCAUGUAAAAAAAUCACAGGAUAUAAGGUCGCGAAAGCGACCUUAGAAGGGUGAUCAA	421	58.8
GAGAUACAUGAGGAUCACCCAUGUUGAAACAUGGGAGGAUAUACAAGGUCGAAAGAUAAGGUAGAAGGCCUAAAAG [LROPPY Same State 1 - v04_deltaG=3.]	20.3	37.6
CGGCAAGAGAGAGAGGAUAUCCAAAGGAAAACAUGAGGAUCACCCAUGUAGAAGGUAGGAAAUUGGGAGAAGGCUCAAGAGAGAG [salish99-ss2-135]	18.4	23.2
AAAAAACAUGAGGAUCACCCAUGUCCUCGGACGUGAGGAUAUGUACAGACUUCGGUCUGUACAGAAGGCAUGUAAA [SS1 - 1051]	379	555

Reference: the supplement of paper PMC9170038
